Molecular target: AP2M (UniProt P84091)
Test: cell-free ELISA, antibody-captured AP2M, biotinylated peptide
Conditions: reference: unphosphorylated control peptide; sites Y816

binding against the reference: stronger
Substance: TRKB (C-terminal peptide) C-terminus, last 26 aa (from UniProt Q63604) pY816 peptide

Reference: doi:10.1101/591909
